Measurements: paper PMC3510022 (Molecular Biology of the Cell, 2012)

B1: GST-Sed5 SNARE domain (residues 170–319) (domain or fragment)
chain: ANKDRWQKLTTDTGHAPADDQTQSNHAADLTTYNNSNPFMTSLLDESSEKNNNSSNQGELSFPQNDSQLMLMEEGQLSNNVYLQERNRAVETIESTIQEVGNLFQQLASMVQEQGEVIQRIDANVDDIDLNISGAQRELLKYFDRIKSNR
B3: Vam3 cytoplasmic domain (residues 1–264) fused C-terminally to GST (domain or fragment)
chain: MSFFDIEAQSSKGNSQQEPQFSTNQKTKELSNLIETFAEQSRVLEKECTKIGSKRDSKELRYKIETELIPNCTSVRDKIESNILIHQNGKLSADFKNLKTKYQSLQQSYNQRKSLFPLKTPISPGTSKERKDIHPRTEAVRQDPESSYISIKVNEQSPLLHNEGQHQLQLQEEQEQQQQGLSQEELDFQTIIHQERSQQIGRIHTAVQEVNAIFHQLGSLVKEQGEQVTTIDENISHLHDNMQNANKQLTRADQHQRDRNKCGK
B6: His7-MBP-Vti1 cytoplasmic domain (domain or fragment)
chain: SSLLISYESDFKTTLEQAKASLAEAPSQPLSQRNTTLKHVEQQQDELFDLLDQMDVEVNNSIGDASERATYKAKLREWKKTIQSDIKRPLQSLVDSGDRDRLFGDLNASNIDDDQRQQLLSNHAILQKSGDRLKDASRIANETEGIGSQIMMDLRSQRETLENARQTLFQADSYVDKSIKTLKTMTRRLVANK
B7: His6-Nyv1 cytoplasmic domain (domain or fragment)
chain: MKRFNVSYVEVIKNGETISSCFQPFQKNENYGTITSANEQITPVIFHNLIMDMVLPKVVPIKGNKVTKMSMNLIDGFDCFYSTDDHDPKTVYVCFTLVDMPKILPIRILSGLQEYESNATNELLSSHVGQILDSFHEELVEYRNQTLNSSGNGQSSNGNGQNTISDIGDATEDQIKDVIQIMNDNIDKFLERQERVSLLVDKTSQLNSSSNKFRRKAVNIKEIMWWQKVKN

Legend:
Test in all cases: pull-down
[1] = target: T1, His6-Sec22 cytoplasmic domain (UniProt P22214 1-192)
T1 sequence: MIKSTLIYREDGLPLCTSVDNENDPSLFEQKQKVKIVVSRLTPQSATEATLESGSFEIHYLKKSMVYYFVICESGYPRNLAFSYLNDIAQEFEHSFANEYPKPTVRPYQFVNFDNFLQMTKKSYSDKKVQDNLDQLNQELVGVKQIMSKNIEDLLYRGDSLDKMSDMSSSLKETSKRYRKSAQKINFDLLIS

[2] = target: B1
His6-Vam7 = target: T2, His6-Vam7 (S. cerevisiae, UniProt P32912 1-316)
T2 sequence: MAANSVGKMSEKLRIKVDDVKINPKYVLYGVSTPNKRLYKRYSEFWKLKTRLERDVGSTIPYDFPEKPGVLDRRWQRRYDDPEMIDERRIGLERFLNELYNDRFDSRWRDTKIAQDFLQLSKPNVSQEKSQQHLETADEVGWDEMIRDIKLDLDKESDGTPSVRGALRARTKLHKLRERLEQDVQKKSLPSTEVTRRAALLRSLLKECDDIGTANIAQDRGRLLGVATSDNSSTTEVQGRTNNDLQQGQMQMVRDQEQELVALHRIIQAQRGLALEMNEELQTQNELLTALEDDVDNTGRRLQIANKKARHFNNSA

purified Vps33 = target: T3, purified Vps33 (S. cerevisiae, UniProt P20795 1-691)
T3 sequence: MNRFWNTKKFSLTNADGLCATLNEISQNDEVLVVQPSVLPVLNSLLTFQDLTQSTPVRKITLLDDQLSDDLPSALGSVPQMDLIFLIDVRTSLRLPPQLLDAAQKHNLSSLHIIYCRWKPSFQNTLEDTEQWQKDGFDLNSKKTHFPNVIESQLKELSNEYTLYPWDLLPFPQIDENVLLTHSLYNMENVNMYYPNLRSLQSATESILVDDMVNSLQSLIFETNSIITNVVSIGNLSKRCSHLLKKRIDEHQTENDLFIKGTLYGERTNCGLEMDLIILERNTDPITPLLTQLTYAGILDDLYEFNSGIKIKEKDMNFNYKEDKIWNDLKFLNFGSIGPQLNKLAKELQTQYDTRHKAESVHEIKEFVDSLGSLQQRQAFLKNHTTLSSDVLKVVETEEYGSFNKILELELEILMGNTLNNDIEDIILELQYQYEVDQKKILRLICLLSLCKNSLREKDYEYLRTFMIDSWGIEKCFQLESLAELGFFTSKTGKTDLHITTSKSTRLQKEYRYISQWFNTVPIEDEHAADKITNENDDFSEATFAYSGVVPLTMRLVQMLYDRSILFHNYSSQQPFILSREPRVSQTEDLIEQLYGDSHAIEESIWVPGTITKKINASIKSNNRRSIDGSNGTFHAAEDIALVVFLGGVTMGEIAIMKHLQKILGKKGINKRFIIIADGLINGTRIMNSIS

[3] = target: B7
[4] = target: B6
[5] = target: B3

Q: Does B1 bind [1]?
A: binds

B2: His6-Bet1 cytoplasmic domain (domain or fragment)
chain: MSSRFAGGNAYQRDTGRTQLFGPADGSNSLDDNVSSALGSTDKLDYSQSTLASLESQSEEQMGAMGQRIKALKSLSLKMGDEIRGSNQTIDQLGDTFHNTSVKLKRTFGNMMEMARR
Q: Does B2 bind [2]?
A: binds

Q: Does B3 bind (His6-Vam7)?
A: binds

B4: minimal SNARE complex lacking the N-terminal domains of Vam3 and Vam7 (complex)
chain 1: SQEELDFQTIIHQERSQQIGRIHTAVQEVNAIFHQLGSLVKEQGEQVTTIDENISHLHDNMQNANKQLTRADQHQRDRNKCGK
chain 2: PSTEVTRRAALLRSLLKECDDIGTANIAQDRGRLLGVATSDNSSTTEVQGRTNNDLQQGQMQMVRDQEQELVALHRIIQAQRGLALEMNEELQTQNELLTALEDDVDNTGRRLQIANKKARHFNNSA
chain 3: SSLLISYESDFKTTLEQAKASLAEAPSQPLSQRNTTLKHVEQQQDELFDLLDQMDVEVNNSIGDASERATYKAKLREWKKTIQSDIKRPLQSLVDSGDRDRLFGDLNASNIDDDQRQQLLSNHAILQKSGDRLKDASRIANETEGIGSQIMMDLRSQRETLENARQTLFQADSYVDKSIKTLKTMTRRLVANK
chain 4: MKRFNVSYVEVIKNGETISSCFQPFQKNENYGTITSANEQITPVIFHNLIMDMVLPKVVPIKGNKVTKMSMNLIDGFDCFYSTDDHDPKTVYVCFTLVDMPKILPIRILSGLQEYESNATNELLSSHVGQILDSFHEELVEYRNQTLNSSGNGQSSNGNGQNTISDIGDATEDQIKDVIQIMNDNIDKFLERQERVSLLVDKTSQLNSSSNKFRRKAVNIKEIMWWQKVKN
Q: For B4, which Kd (purified Vps33) is on record?
A: 2.8 µM

B5: Vam3 SNARE domain (residues 182–264) fused C-terminally to GST (domain or fragment)
chain: SQEELDFQTIIHQERSQQIGRIHTAVQEVNAIFHQLGSLVKEQGEQVTTIDENISHLHDNMQNANKQLTRADQHQRDRNKCGK
Q: Does B5 bind [3]?
A: binds

Q: Does B5 bind [4]?
A: binds

Q: Does B6 bind [5]?
A: binds

Q: Does B7 bind [5]?
A: binds
